Measured values reported in patent US20170283495A1 (published 2017).
Blank lines part the entries; values can stand above or below the binder they belong to. Where no end group is shown, it is not given here.

B2: human hepcidin-20 peptide (peptide)
peptide: ICIFCCGCCHRSKCGMCCKT
notes: also called hep-20; hHepcidin-20
B3: murine anti-hepcidin MAb 583 (antibody, V domains shown)
VH: QIQLVQSGPELKKPGETVKISCKASGYTFTNYGMNWVKQAPGKGLKWMGWINTYTGEPTYADDFKGRFAFSLETSASTAYLQINNLKNEDTATYFCTTYATSWYWGQGTTLTVSS
VL: DIVLTQSPASLAVSLGQRATISCRASESVDSYGNSFMHWYQQKPGQPPKLLIYRASNLESGIPARFSGSGSRTDFTLTINPVEADDVATYYCQQSNEDLTFGGGTKLEIK
notes: Murine IgG from a hybridoma, purified on protein G (Protein A in some legends); detected with anti-mouse IgG1 (H+L); also called 5A3; hybridoma 5A3

Tests used:
[1] = molecular target: B3; assay: C-ELISA, purified MAb 583 coated, hepcidin-25 against NT-biotin hepcidin-25 tracer (FIG. 16)
Protocol: FIG. 16. […] The relative binding of the NT-biotin hepcidin-25 tracer (1 ng/well) relative to hepcidin-25, hepcidin-22, and hepcidin-20 was measured by ELISA. Four parameter logistical regression analysis was conducted using GraphPad Prism software to produce the curves shown.

[2] = molecular target: T1, BAP070-01 human-mouse chimeric MAb 583; assay: C-ELISA, BAP070-01 supernatant on Protein G, hepcidin-25 against NT-biotin hepcidin-25 tracer, 4-parameter fit
T1 construct: tested as unpurified CHO cell supernatant (3650 ng/ml IgG); also called BAP070-01 chimera
Protocol: To capture BAP070-01 chimeric antibodies we coated microwell plates with Protein G (150 ng/well) overnight in carbonate coating buffer.
The plate was washed with TBST and one (1) ng/well of NT-biotin hepcidin-25 was mixed with different amounts (0-100 ng) of synthetic hepcidin-25 standard in TBST, 0.25% BLOTTO and added onto the plate to bind competitively. The plate was washed with TBST and SA-HRP (1:2500) added and allowed to bind for 1 hour.
The standard curve shown in FIG. 31 was generated using a four parameter logistical regression (Graphpad Prism; San Diego, Calif.).

[3] = molecular target: B3; assay: competition ELISA, MAb 583 coated, NT-biotin hepcidin-25 tracer
[4] = molecular target: B2; assay: Western blot after non-reducing tricine SDS-PAGE
NT-biotin hepcidin-25 [5] = molecular target: T2, NT-biotin hepcidin-25 (human, NT-biotin (biotin label; NT is not spelled out, taken as the N-terminus)); assay: Biacore SPR, biotin peptide on chip, MAb 583 at 5 µg/ml
T2 construct: also called NT-biotin hepcidin-25 tracer
T2 peptide: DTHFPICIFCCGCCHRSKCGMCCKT

K18-biotin hepcidin-25 [6] = molecular target: T3, K18-biotin hepcidin-25 (human, biotin on K18); assay: as above
T3 construct: also called K18-Biotin Hepcidin-25 tracer
T3 peptide: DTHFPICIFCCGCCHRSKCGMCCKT

NT-biotin hepcidin-25 [7] = molecular target: T2, NT-biotin hepcidin-25; assay: ELISA, 583 coated at 25 ng/well, tracer 1 ng/well, SA-HRP
Protocol: (§1) We used a microwell plate ELISA to assess antibody activity. […] The NT-biotin hepcidin-25 tracer was added across the plate at 1 ng/well in TBST, pH 8) containing 0.25% Blotto. The tracer was allowed to bind for 2 hours and the wells were washed in TBST, pH 8 with no Blotto. SA-HRP was added at 1:2500 for 30 minutes, the wells washed in TBST, and TMB substrate added for 10 minutes. Stop buffer was added the OD quantified on a spectrophotometer at 450 nm. An OD of 4 indicates the absorbance is beyond the analytic range of the spectrophotomer.

NT-biotin hepcidin-25 [8] = molecular target: T2, NT-biotin hepcidin-25; assay: ELISA, 583 coated at 50 ng/well, tracer 1 ng/well, SA-HRP
Protocol: as §1

NT-biotin hepcidin-25 [9] = molecular target: T2, NT-biotin hepcidin-25; assay: ELISA, 583 coated at 100 ng/well, tracer 1 ng/well, SA-HRP
Protocol: as §1

[10] = molecular target: T4, human hepcidin 10-25 peptide (human, disulfide (positions not given here); also: oxidized and refolded with proper cysteine bonds, pairing not given here); assay: competition ELISA, MAb 583 coated, NT-biotin hepcidin-25 tracer
T4 construct: also called hep 10-25; hHepcidin 10-25
T4 peptide: CCGCCHRSKCGMCCKT

mouse hepcidin-1 peptide = molecular target: T5, mouse hepcidin-1 peptide (mouse); assay: as above
T5 construct: also called murine hepcidin-1; mouse hepcidin-25
T5 peptide: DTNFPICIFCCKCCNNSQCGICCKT

NT-biotin hepcidin-25 [11] = molecular target: T2, NT-biotin hepcidin-25; assay: ELISA, 583 coated at 12.5 ng/well, tracer 1 ng/well, SA-HRP
Protocol: as §1

NT-biotin hepcidin-25 [12] = molecular target: T2, NT-biotin hepcidin-25; assay: Biacore SPR, biotin peptide on neutravidin chip, MAb 583 at 24 µg/ml
Protocol: (§2) Biotinylated hepcidin peptides (NT-biotin-hepcidin-25, K18-biotin-hepcidin-25 and K24-biotin-hepcidin-25) were immobilized in flow cells 2-4 (one peptide species per flow cell) by injecting individual peptides at a concentration of 200 μg/ml at a flow rate of 5 μl/min, for 20 min.
(§3) After 3 minutes, injection was stopped and dissociation was followed for 6 min. Regeneration was performed by injecting 10 mM glycine HCl, pH 1.5 at a flow rate of 10 μl/min for 1 min.

K18-biotin hepcidin-25 [13] = molecular target: T3, K18-biotin hepcidin-25; assay: as above
Protocol: as §2, §3

K24-biotin hepcidin-25 = molecular target: T6, K24-biotin hepcidin-25 (human, biotin on K24); assay: as above
T6 construct: also called K24-biotin hepcidin-25 tracer
T6 peptide: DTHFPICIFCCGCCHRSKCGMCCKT
Protocol: as §2, §3

EC50 [1]: ≤ 5 ng/mL | EC50 [2]: 0.054 µg/mL
B1: human hepcidin-25 (synthetic) (peptide)
peptide: DTHFPICIFCCGCCHRSKCGMCCKT
notes: Synthetic, biologically active 25 aa peptide; also called hep-25; Hep-25

Binder: B2
binding result [3]: binds

Binder: B3
binding result [4]: binds | Kd (NT-biotin hepcidin-25 [5]): ~0.018 nM | Kd (K18-biotin hepcidin-25 [6]): ~7.5 pM | OD 450 nm (NT-biotin hepcidin-25 [7]): ≥ 4 OD | OD 450 nm (NT-biotin hepcidin-25 [8]): ≥ 4 OD | OD 450 nm (NT-biotin hepcidin-25 [9]): ≥ 4 OD | binding result [10]: no binding (tested: up to 2000 ng/ml) | binding result (mouse hepcidin-1 peptide): no binding (tested: up to 2000 ng/ml) | OD 450 nm (NT-biotin hepcidin-25 [11]): ≥ 4 OD | Ka (NT-biotin hepcidin-25 [12]): 1.94e+10 M⁻¹ | Kd (NT-biotin hepcidin-25 [12]): 0.0516 nM | Req (NT-biotin hepcidin-25 [12]): 78.8 RU | kobs (NT-biotin hepcidin-25 [12]): 0.00977 s⁻¹ | koff (NT-biotin hepcidin-25 [12]): 3.15e-06 s⁻¹ | kon (NT-biotin hepcidin-25 [12]): 61100 M⁻¹ s⁻¹ | Ka (K18-biotin hepcidin-25 [13]): 1.14e+09 M⁻¹ | Kd (K18-biotin hepcidin-25 [13]): 0.878 nM | Req (K18-biotin hepcidin-25 [13]): 126 RU | kobs (K18-biotin hepcidin-25 [13]): 0.0102 s⁻¹ | koff (K18-biotin hepcidin-25 [13]): 5.59e-05 s⁻¹ | kon (K18-biotin hepcidin-25 [13]): 63700 M⁻¹ s⁻¹ | Ka (K24-biotin hepcidin-25): 1.8e+08 M⁻¹ | Kd (K24-biotin hepcidin-25): 5.54 nM | Req (K24-biotin hepcidin-25): 63.1 RU | kobs (K24-biotin hepcidin-25): 0.0086 s⁻¹ | koff (K24-biotin hepcidin-25): 0.000288 s⁻¹ | kon (K24-biotin hepcidin-25): 52000 M⁻¹ s⁻¹
